For assay [1], the target named is T1, cynomolgus monkey Ly6E (native, in cynomolgus monkey tissues) (cynomolgus monkey, UniProt Q16553 21-101 (human entry)).
T1 construct: Endogenous protein in normal cynomolgus monkey tissue sections (IHC); also called cyno Ly6E
T1 chain: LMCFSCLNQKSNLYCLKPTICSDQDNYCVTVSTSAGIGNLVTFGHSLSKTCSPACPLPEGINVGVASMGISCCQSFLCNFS
Briefly: IHC on normal cynomolgus monkey tissues.

Assay [2] addresses T2, human Ly6E (native, in human tumor cells, xenograft tumors and human tissues) (human, UniProt Q16553 21-101).
T2 sequence: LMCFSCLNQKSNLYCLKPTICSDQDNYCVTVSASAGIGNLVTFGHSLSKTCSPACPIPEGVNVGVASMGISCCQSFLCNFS
As to the kind of experiment: cell-based or functional assay.

B1: rabbit anti-Ly6E antibody clone GEN-93-8-1 (antibody, V domains shown)
VH: QSVEESGGRLVTPGTPLTLTCATSGFSLSIYDMTWVRQAPGKGLEWIGVIYTSGGAYYANWAKGRFTISRTSTTVDLRMTSPTTEDTATYFCVRNWAHGSDLWGQGTLVTVSS
VL: DPVVTQTPSSASAAVGGTVSISCQSSQSVYNNNYLGWYQQKPGQPPKLLIYDASKLASGVPSRFKASGSGTQFALTISDLECDDAATYYCVGGYPGSLNVFGGGTEVVVK
notes: Rabbit monoclonal IgG; also called antibody GEN-93-8-1
For the molecule B1, the binding result in assay [1] was “binds”.

B2: humanized anti-Ly6E (hu9B12 v12) ADC (MC-vc-PAB-MMAE) (antibody, V domains shown)
VH: EVQLVESGPALVKPTQTLTLTCTVSGFSLTGYSVNWIRQPPGKALEWLGMIWGDGSTDYNSALKSRLTISKDTSKNQVVLTMTNMDPVDTATYYCARDYYFNYASWFAYWGQGTLVTVSS
VL: DIQMTQSPSSLSASVGDRVTITCSASQGISNYLNWYQQKPGKTVKLLIYYTSNLHSGVPSRFSGSGSGTDYTLTISSLQPEDFATYYCQQYSELPWTFGQGTKVEIK
With B2, the “EC50 (cell killing, CellTiter-Glo, HCC1569 X2 cells, 5 days)” value in assay [2] was found to be 4 nM.

Source of the values: US20170058042A1 (Genentech, published 2017).
